Assay [1] addresses T1, human CTLA-4-Fc (Chimerigen) (human, UniProt P16410 36-161; P01857 99-330 = IgG part, limits assumed).
T1 construct: extracellular domain;domain: Fc portion; Bought protein; also called hCTLA-4-Fc; huCTLA-4-Ig
Description: ELISA towards hCTLA-4-Fc. Background: In an ELISA, binding on a coated surface is turned into a signal by an enzyme label.
Target sequence in this assay (P16410 other isoform, or with tags, fused parts or gaps mutant limits assumed): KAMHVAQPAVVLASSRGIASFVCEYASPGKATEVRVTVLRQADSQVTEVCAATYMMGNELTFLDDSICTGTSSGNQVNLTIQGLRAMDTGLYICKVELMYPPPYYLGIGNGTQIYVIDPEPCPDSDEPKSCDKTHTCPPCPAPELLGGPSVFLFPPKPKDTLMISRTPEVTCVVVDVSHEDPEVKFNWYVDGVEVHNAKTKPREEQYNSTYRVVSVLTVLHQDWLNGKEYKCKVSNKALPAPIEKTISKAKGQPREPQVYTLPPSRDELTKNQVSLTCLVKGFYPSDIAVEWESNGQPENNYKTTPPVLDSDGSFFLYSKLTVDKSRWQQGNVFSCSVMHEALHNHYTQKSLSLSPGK

For assay [2], the target named is T1, human CTLA-4-Fc (Chimerigen). Description: SPR-Affinity towards hCTLA-4-Fc.
Target sequence in this assay (P16410 other isoform, or with tags, fused parts or gaps mutant limits assumed): as above
For assay [3] the target is unchanged. In words: competition FACS: 2.5 nM human CTLA-4 Fc pre-incubated with the antagonist, then staining of Raji cells; % inhibition of CTLA-4 Fc binding; blocked ligands B7.1 and B7.2.
The target is the same in assay [4]. In words: SPR-Affinity of the PEGylated monomer towards hCTLA-4-Fc.
Target sequence in this assay (P16410 other isoform, or with tags, fused parts or gaps mutant limits assumed): as above
The target is the same in assay [5]. Description: Affinity-ELISA of the PEGylated monomer towards hCTLA-4-Fc.
Target sequence in this assay (P16410 other isoform, or with tags, fused parts or gaps mutant limits assumed): as above
Assay [6] has the same target. Description: SPR as in Example 9.
Target sequence in this assay (P16410 other isoform, or with tags, fused parts or gaps mutant limits assumed): as above
Assay [7] concerns the target T2, mCTLA-4-Fc (R&D Systems) (mouse, UniProt P09793 36-162). Description: SPR as in Example 9.
In assay [8] the target is T1, human CTLA-4-Fc (Chimerigen). In words: SPR; KD listed beside Tm.
Target sequence in this assay (P16410 other isoform, or with tags, fused parts or gaps mutant limits assumed): as above
Assay [9] deals with T2, mCTLA-4-Fc (R&D Systems). Description: SPR; KD listed beside Tm.
The target in assay [10] is T1, human CTLA-4-Fc (Chimerigen). In words: SPR-Affinity of the monomer towards hCTLA-4-Fc.
Assay [11] shares this target. Description: FACS competition: inhibition of 2.5 nM hCTLA-4 Fc binding to Raji cells (B7.1, B7.2).
Assay [12] has as its target T3, mouse CTLA-4 Fc (Chimerigen) (mouse, UniProt P09793 36-161).
T3 construct: also called muCTLA-4-Ig; muCTLA-4-Fc; not shown: Fc part not described; detected with anti-mouse IgG-phycoerythrin
Description: FACS competition: inhibition of 2.5 nM mCTLA-4 Fc binding to Raji cells (B7.1, B7.2).

Assay [13] addresses T4, human CTLA-4 on the cell surface (transfected CHO and A431 cells; CD152-expressing cells of human tonsil) (human, UniProt P16410 36-223).
T4 construct: whole, on cells; also called CHO-hCTLA-4; CHO::hCTLA-4
T4 sequence (looked up): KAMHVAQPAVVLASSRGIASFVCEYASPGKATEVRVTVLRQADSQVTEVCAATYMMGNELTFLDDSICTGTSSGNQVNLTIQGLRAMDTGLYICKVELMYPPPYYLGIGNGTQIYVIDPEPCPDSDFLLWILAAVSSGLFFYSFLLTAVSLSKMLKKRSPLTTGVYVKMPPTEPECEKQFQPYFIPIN
In words: indirect immunoperoxidase staining of cryosections; column Negative Control Antibody [Isotype-matched hNGALwt_58].

The target of assay [14] is T1, human CTLA-4-Fc (Chimerigen). In words: SPR, Fc fusion captured via anti-human IgG Fc. (Surface plasmon resonance follows binding to a sensor surface in real time, without labels.)
The target of assay [15] is T2, mCTLA-4-Fc (R&D Systems). In words: SPR, Fc fusion captured via anti-human IgG Fc.
Assay [16] addresses T1, human CTLA-4-Fc (Chimerigen). In words: competition FACS: HuCTLA4-Ig 10 ug/ml pre-incubated with the antagonist, then staining of P815 cells transfected with human B7.2; blocked ligand B7.2.

The term Kd denotes the equilibrium constant for the complex coming apart. The term koff denotes a measure of how fast the partners let go of each other. A high value points to fast dissociation. In general, kon refers to the second-order rate constant of association. The term IC50 denotes the point on the concentration scale where inhibition reaches its midpoint. Lower therefore signals greater potency.

Residue numbers refer to the chain shown, from its start.

T2 sequence (P09793 whole entry): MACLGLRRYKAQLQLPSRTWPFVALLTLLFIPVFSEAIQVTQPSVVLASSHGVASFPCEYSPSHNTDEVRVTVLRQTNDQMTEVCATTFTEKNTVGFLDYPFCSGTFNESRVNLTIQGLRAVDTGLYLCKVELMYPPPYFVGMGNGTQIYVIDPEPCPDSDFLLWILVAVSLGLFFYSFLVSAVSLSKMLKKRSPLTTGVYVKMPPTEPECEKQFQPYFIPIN

B1: S140.4-O10 site-directed PEGylated at Cys 87 with 20k PEG (designed binder)
chain: QDSTSDLIPAPPLSKVPLQQNFQDNQFHGKWYVVGLAGNRILRDDQHPMNMYATIYELKEDKSYNVTSVISSHKKCEYTIATFVPGCQPGEFTLGNIKSYGDKTSYLVRVVSTDYNQYAVVFFKLAEDNAEFFAITIYGRTKELASELKENFIRFSKSLGLPENHIVFPVPIDQCIDGSAWSHPQFEK
modifications: chain 1 pos 87: Cys carrying linear 20 kDa PEG-maleimide, written C
notes: also called O10_PEG(20k); S140.4-O10-PEG (20k)
The molecule B1 had an ELISA affinities in assay [1] of 3.6 nM. The same molecule had a dissociation constant Kd in assay [2] of 11 nM. Further, the “IC50 (read off the curve)” value in [3] was around 4 nM.

B2: S140.4-O10 site-directed PEGylated at Cys 87 with 30k PEG (designed binder)
chain: B1 chain
modifications: chain 1 pos 87: Cys carrying linear 30 kDa PEG-maleimide, written C
notes: also called O10_PEG(30k); S140.4-O10-PEG(30k)
Turning to B2, in [1], the ELISA affinities was determined as 3 nM.

B3: S140.4-O10 site-directed PEGylated at Cys 87 with 12k PEG (designed binder)
chain: B1 chain
modifications: chain 1 pos 87: Cys carrying linear 12k PEG-maleimide on its thiol, written C
notes: also called O10_PEG(12k); O10_S87C PEGylated monomer
B3: the ELISA affinities in assay [1] turned out to be 3.2 nM. In addition, the equilibrium dissociation constant (Kd) in [2] was 20 nM; in assay [4], 26 nM. Besides, the “ELISA-Affinity PEGylated Monomer” value in assay [5] was 52 nM.

B4: S140.4-O10-ABD (fusion with the albumin binding domain of streptococcal protein G) (designed binder)
chain: QDSTSDLIPAPPLSKVPLQQNFQDNQFHGKWYVVGLAGNRILRDDQHPMNMYATIYELKEDKSYNVTSVISSHKKCEYTIATFVPGSQPGEFTLGNIKSYGDKTSYLVRVVSTDYNQYAVVFFKLAEDNAEFFAITIYGRTKELASELKENFIRFSKSLGLPENHIVFPVPIDQCIDGSGGAVDANSLAEAKVLANRELDKYGVSDYYKNLINNAKTVEGVKALIDEILAALPSAWSHPQFEK
notes: Original linker of protein G between mutein and ABD; also called Onc I-004
Molecule B4 displayed an ELISA affinities in assay [1] of 3.3 nM. Further, in assay [2], the affinity, expressed as Kd, was 8.9 nM. Further, in assay [3], the “IC50 (read off the curve)” value was around 4 nM.

B5: hNGAL mutein S140.4-O10 (designed binder)
chain: QDSTSDLIPAPPLSKVPLQQNFQDNQFHGKWYVVGLAGNRILRDDQHPMNMYATIYELKEDKSYNVTSVISSHKKCEYTIATFVPGSQPGEFTLGNIKSYGDKTSYLVRVVSTDYNQYAVVFFKLAEDNAEFFAITIYGRTKELASELKENFIRFSKSLGLPENHIVFPVPIDQCIDG
notes: also called Onc I-002
As for B5, the Kd in assay [6] was 8.3 nM; in assay [7], 40.8 nM; in assay [8], 8.3 nM; in assay [9], 40.8 nM; in assay [2], 3.7 nM. Besides, the koff in assay [6] was 0.000221 s⁻¹; in assay [7], 0.00049 s⁻¹. Further, the kon was determined as 15300 M⁻¹ s⁻¹ in assay [6] and 11900 M⁻¹ s⁻¹ in assay [7]. This molecule also gave an ELISA affinities in assay [1] of 3.8 nM. In addition, in [3], the “IC50 (read off the curve)” value is around 2 nM.

B6: hNGAL mutein S140.4-O10 without T7 tag (designed binder)
chain: B5 chain
notes: also called S140.4-O10 (-T7 tag); S140.4-O10(-T7)
Turning to B6, the equilibrium dissociation constant (Kd) is 3.9 nM in assay [6], 15.3 nM in [7] and 3 nM in assay [10]. Further, the koff came out at 0.000108 s⁻¹ in assay [6] and 0.000416 s⁻¹ in assay [7]. Further, the on-rate (kon) was found to be 27700 M⁻¹ s⁻¹ in assay [6] and 27200 M⁻¹ s⁻¹ in [7]. Further, the IC50 in assay [11] was determined as 2.5 nM; in [12], 15.5 nM.

B7: hNGAL mutein S140.4-B16 (designed binder)
chain: B5 chain with S71F, S72P, G95S, N96D
notes: tagged entry not tied to the name; not shown: N-terminal T7 detection tag from vector phNGAL37; C-terminal Strep-tag II from vector phNGAL37
Consider B7, for which the Kd was 68 nM in [6], 112 nM in assay [7], 68 nM in [8] and 112 nM in assay [9]. Besides, the off-rate (koff) was determined as 0.000418 s⁻¹ in assay [6] and 0.00056 s⁻¹ in [7]. The kon came to 6160 M⁻¹ s⁻¹ in assay [6] and 5000 M⁻¹ s⁻¹ in [7].

B8: control lipocalin hNGAL wt58 (other)
chain: QDSTSDLIPAPPLSKVPLQQNFQDNQFHGKWYVVGLAGNAILREDKDPQKMYATIYELKEDKSYNVTSVLFRKKKCDYWIRTFVPGSQPGEFTLGNIKSYPGLTSYLVRVVSTNYNQHAMVFFKKVSQNREYFKITIYGRTKELASELKENFIRFSKSLGLPENHIVFPVPIDQCIDG
notes: also called hNGAL-58; hNGAL58
As for B8, the binding result in [13] was “no binding (tested: 40 µg/mL)”.

B9: S140.4-O10-CH4 (fusion with the CH4 domain of the human IgE-Fc portion) (designed binder)
chain: QDSTSDLIPAPPLSKVPLQQNFQDNQFHGKWYVVGLAGNRILRDDQHPMNMYATIYELKEDKSYNVTSVISSHKKCEYTIATFVPGSQPGEFTLGNIKSYGDKTSYLVRVVSTDYNQYAVVFFKLAEDNAEFFAITIYGRTKELASELKENFIRFSKSLGLPENHIVFPVPIDQCIDGSTTKTSGPRAAPEVYAFATPEWPGSRDKRTLACLIQNFMPEDISVQWLHNEVQLPDARHSTTQPRKTKGSGFFVFSRLEVTRAEWEQKDEFICRAVHEAASPSQTVQRAVSVNPESSRSGGCSAWSHPQFEK
modifications: The molecule is a homodimer formed through the CH4 domain (the patent calls it the CH4-dimer). One copy of the chain is given.
notes: Fused for dimerization; CH4 domain between the mutein and the C-terminal Strep tag; also called CH4-dimer
B9 showed a Kd in [2] of 0.8 nM. This counts as sub-nanomolar.

B10: hNGAL mutein S94.7-Q13 (designed binder)
chain: QDSTSDLIPAPPLSKVPLQQNFQDNQFHGKWYVVGLAGNRILRDDQHPMNMYATIYELKEDKSYNVTSVIFPHKKCEYTIATFVPGSQPGEFTLGNIKSYGDKTSYLVRVVSTNYNQHATVFFKLAEDNAEFFAITIYGRTKELASELKENFIRFSKSLGLPENHIVFPVPIDQCIDGSAWSHPQF
notes: also called CTLA-4-Q13
In assay [14], B10 displayed a Kd of 11.8 nM, an off-rate (koff) of 7.1e-05 s⁻¹ and an on-rate (kon) of 6000 M⁻¹ s⁻¹. In [15], this molecule yielded an equilibrium dissociation constant (Kd) of 39.5 nM, a koff of 0.00017 s⁻¹ and a kon of 4300 M⁻¹ s⁻¹. Further, the “IC50 (read off the curve)” value in assay [16] was around 5 µg/mL.

For the origin of these results see patent publication US20090042785A1 (Pieris, published 2009).
